Consider two molecules from patent publication US6403765B1, “Truncated Apaf-1 and methods of use thereof” (Thomas Jefferson University, priority 1998, dated 2002).

Test [1] has as its system procaspase-9. The experiment in a line: Autoprocessing of in vitro translated procaspase-9 and Fc-fusion procaspase-9 variants. It counts as biochemical. Particulars: 35S-labeled, FIG. 9. An excerpt: (§1) ^35S-labeled caspases were obtained by in vitro translation in the presence of ^35S-methionine using a coupled transcription/translation system in rabbit reticulocyte lysate using TNT Kit (Promega) according to the manufacturer's recommendations.
Artificially-induced oligomerization of procaspase-1 or procaspase-8 by overexpression or by heterologous-inducible oligomerization systems causes their autocatalytic processing/activation (Gu et al., EMBO 14:1923-1931, 1995; Muzio et al., J. Biol. Chem. 273:2926-2930, 1998; Yang et al., Mol. Cell 1:319-325, 1998). To test if procaspase-9 can also be activated by heterologous oligomerization, WT and the C287A mutant procaspase-9 was fused to the mouse IgG-Fc portion which can form spontaneous dimers by intermolecular disulfide linkages. FIG. 9 depicts processing of non-fusion WT procaspase-9 (pcasp-9, lane 1) or C-terminal Fc-fusion WT (pcasp-9-Fc, lane 2) or C287A (active site) mutant (pcasp-9-C287A-Fc, lane 3) procaspase-9 which were in vitro translated in the presence of ^35S-methionine and then analyzed by SDS-PAGE and autoradiography.

Test [2] has as its system MCF-7 cells. The test can be described thus: Induction of apoptosis in MCF-7 cells transfected with procaspase-9 variants. The note with it: overexpression, 30 hours after transfection, FIG. 10. In kind it is cell-based. From the text:
(§2) To express the caspases or truncated Apaf-1 in mammalian cells and assay their apoptotic activity, they were amplified with the T7-tag primer and reverse primers using the pET28a constructs as templates, and subcloned into the mammalian double expression vector pRSC-LacZ (MacFarlane et al., J. Biol. Chem., 272:25417-25420, 1997; Tsang et al., Bio/Technology, 22:68, 1997) or as previously described (Li et al., Cell 91:479-489, 1997; Srinivasula et al., J. Biol. Chem., 272:18452-18545, 1997). This vector allows the expression of lacZ under the Rous Sarcoma virus promoter, and the test cDNA under the CMV promoter. To assay for apoptosis, MCF-7 or 293 cells were transfected, using the method commercially available as the Lipofect Amine method (Life Technologies, Inc.), with the pRSC-LacZ constructs in the presence or absence of different apoptosis-inhibitors. 30 h after transfection cells were stained with β-galactosidase and examined for morphological signs of apoptosis. The percentage of round blue apoptotic cells (mean±SD) were determined by phase contrast microscopy and then represented as a function of total blue cells under each condition (n≧3).
In FIG. 10, mammalian expression constructs encoding Fc or the procaspase-9 variants described in FIG. 9 were transfected into MCF-7 cells together with a reporter β-gal expression construct at a ratio of 3:1. […]

Test [3] concerns MCF-7 cells. The test can be described thus: Inhibition of apoptosis in transfected MCF-7 cells. Particulars: apoptosis induced by UV, Fas agonist antibody. It counts as cell-based.
Text: as §2

The subject of test [4] is procaspase-9. The test can be described thus: Cytochrome c/dATP-dependent processing of procaspase-9 in 293 cellular S100 extract. The note with it: 293 S100 extract, increasing amounts of purified protein, 1 hour at 30° C., dose-dependent, FIG. 18. It counts as biochemical. The protocol: To study processing of procaspase-9 in the cytochrome c/Apaf-1-dependent pathway, WT and the Asp to Ala mutants of procaspase-9 were incubated with a cellular S100 extract in the presence or absence of cytochrome c and dATP. […] Samples were then analyzed by SDS-PAGE and autoradiography.
(§3) To confirm this, a time course analysis of procaspase-9 and procaspase-3 processing was performed in cellular S100 extracts from 293 and MCF-7 cells. […] At the indicated times the reactions were stopped and then analyzed by SDS-PAGE and autoradiography (procaspase-9 panels) or Western blot analysis using anti-caspase-3 p20 polyclonal antibody (procaspase-3 panels). Small arrows indicate a non-specific band detected by the anti-caspase-3 antibody.
(§4) In FIG. 18, 293 cellular S100 extracts supplemented with ^35S-labeled procaspase-9 (upper panel) or procaspase-3 (lower panel) were incubated with (lanes 3-7) or without (lane 2) cytochrome c plus dATP in the presence of increasing amounts of purified recombinant procaspase-9-C287A mutant for 1 hour at 30° C. and then analyzed by SDS-PAGE and autoradiography. […] Consequently, the Apaf-1/caspase-9 pathway appears to be a central apoptotic pathway, on which most apoptotic signals converge.

Test [5] relates to apoptosis induced by the proapoptotic members of the Bcl-2 family. The note with it: Hegde et al. 1998; Li et al. 1997; cited from earlier work.
Test [6] has as its system procaspase-3. The test can be described thus: Cytochrome c/dATP-dependent processing of procaspase-3 in 293 cellular S100 extract. It counts as biochemical. Particulars: 293 S100 extract, increasing amounts of purified protein, 1 hour at 30° C., dose-dependent, FIG. 18. The protocol:
as §3
In FIG. 8, ^35S-labeled procaspase-3, -6 or -7 were incubated with S100 extracts from 293 cells in the presence or absence of cytochrome c/dATP or DEVD-CHO, or both and analyzed by SDS-PAGE followed by autoradiography. However, when DEVD-CHO was included, processing of procaspase-6 (lane 6), but not procaspase-3 (lane 3) or -7 (lane 9) was inhibited. […] Also, since caspase-7 cannot process procaspase-6 (Srinivasula et al., J. Biol. Chem. 271:27099-27106, 1996), caspase-3 is the one responsible for processing of procaspase-6 in the cytochrome c plus dATP-dependent pathway.
as §4

Test [7] deals with T1, procaspase-9 (Homo sapiens, UniProt P55211).
T1 construct: schematic representation of full length procaspase-9; made in house; host or cells: coupled in vitro transcription/translation in rabbit reticulocyte lysate (TNT Kit, Promega)
T1 sequence (P55211 1-416): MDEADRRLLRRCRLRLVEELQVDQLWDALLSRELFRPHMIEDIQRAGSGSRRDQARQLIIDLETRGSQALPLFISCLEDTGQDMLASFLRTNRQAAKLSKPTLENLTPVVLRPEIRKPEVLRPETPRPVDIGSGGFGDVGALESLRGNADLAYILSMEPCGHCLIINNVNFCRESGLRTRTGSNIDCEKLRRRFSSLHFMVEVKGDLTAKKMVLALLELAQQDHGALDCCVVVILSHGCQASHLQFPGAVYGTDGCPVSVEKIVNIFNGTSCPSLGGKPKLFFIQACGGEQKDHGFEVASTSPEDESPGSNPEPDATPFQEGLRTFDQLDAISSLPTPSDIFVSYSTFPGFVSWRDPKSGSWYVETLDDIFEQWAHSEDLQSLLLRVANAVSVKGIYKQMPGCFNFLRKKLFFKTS
The experiment in a line: In vitro caspase 9 activation assay: recombinant Apaf-1 variants incubated with in vitro translated procaspase-9. The note with it: in vitro reconstituted system, data not shown. It counts as biochemical. The protocol: SDS sample buffer was then added to each sample, boiled and subjected to SDS-PAGE analysis followed by autoradiography. In FIG. 2A procaspase-9 was in vitro translated in the presence of ^35S-methionine. Following translation procaspase-9 was desalted by gel filtration through a biospin column (BioRad) to remove unincorporated methionine and free nucleotides. Desalted procaspase-9 was then incubated with 200 ng Ni^2+-affinity purified bacterially expressed recombinant Apaf-530 (WT or K149R mutant) in the presence or absence of cytochrome c or dATP or both for 2 h at 30° C. A mock sample containing Ni^2+-affinity purified material from bacteria transformed with an empty vector was used as a negative control. Following incubation the products were analyzed by SDS-PAGE and autoradiography. In FIG. 2B^35S-labeled procaspase-9 (as described above) was incubated with bacterial lysates containing truncated Apaf-1 variants as indicated and then analyzed as above (2B upper panel). The bacterial lysates were analyzed by SDS-PAGE and immunoblotted with an Apaf-1 antibody which recognizes the N-terminus of Apaf-1 (lanes 2-6) and an anti T7-tag antibody (lanes 7-8) to confirm expression and equivalent concentration of the different Apaf-1 variants (2B lowerpanel). The molecular mass markers are indicated to the right of the lower panel.
as §1
To determine the role of the WD-40 repeat in the mechanism of Apaf-1-induced processing of procaspase-9, truncated Apaf-1 (Apaf-530) lacking its WD-40 repeats (FIG. 1) was expressed and purified. To reconstitute a recombinant caspase-9 activation system, the truncated Apaf-530 was incubated with in vitro translated recombinant procaspase-9 in the presence or absence of cytochrome c and dATP. […] It was previously shown that mutation of CED-4 K165R which is required for nucleotide binding destroys its activity (Chinnaiyan et al., Nature 388:728-729, 1997; Jarnes et al., Curr. Biol. 7:246-252, 1997; Seshagiri and Miller, Curr. Biol. 7:455-460, 1997). […] Therefore, either binding of Apaf-1 to cytochrome c and dATP or deletion of the repeats could induce a conformational change enabling Apaf-1 to bind and process procaspase-9.
In FIG. 3, ^35S-labeled WT or mutant D330A, D315A or C287A mutants of procaspase-9 or prodomainless procaspase-9 (Δpro, residues 134-416) were incubated with buffer (lanes 1, 4, 7, 10, 13), purified Apaf-530 (lanes 2, 5, 8, 11, 14) or mock purified material (lanes, 3, 6, 9, 12, 15) and then analyzed by SDS-PAGE and autoradiography.

B1: WT procaspase-9: non-fusion wild type procaspase-9 (protein)
chain: MDEADRRLLRRCRLRLVEELQVDQLWDALLSRELFRPHMIEDIQRAGSGSRRDQARQLIIDLETRGSQALPLFISCLEDTGQDMLASFLRTNRQAAKLSKPTLENLTPVVLRPEIRKPEVLRPETPRPVDIGSGGFGDVGALESLRGNADLAYILSMEPCGHCLIINNVNFCRESGLRTRTGSNIDCEKLRRRFSSLHFMVEVKGDLTAKKMVLALLELAQQDHGALDCCVVVILSHGCQASHLQFPGAVYGTDGCPVSVEKIVNIFNGTSCPSLGGKPKLFFIQACGGEQKDHGFEVASTSPEDESPGSNPEPDATPFQEGLRTFDQLDAISSLPTPSDIFVSYSTFPGFVSWRDPKSGSWYVETLDDIFEQWAHSEDLQSLLLRVANAVSVKGIYKQMPGCFNFLRKKLFFKTS
As to B1, the “self-processing to large subunit (p35) and small subunit” value in test [1] was “incapable of processing”. Moreover, in test [2], the induction of apoptosis entry was “induced little apoptosis”.

B2: Caspase-9-DN: dominant negative procaspase-9-C287A mutant (protein)
chain: MDEADRRLLRRCRLRLVEELQVDQLWDALLSRELFRPHMIEDIQRAGSGSRRDQARQLIIDLETRGSQALPLFISCLEDTGQDMLASFLRTNRQAAKLSKPTLENLTPVVLRPEIRKPEVLRPETPRPVDIGSGGFGDVGALESLRGNADLAYILSMEPCGHCLIINNVNFCRESGLRTRTGSNIDCEKLRRRFSSLHFMVEVKGDLTAKKMVLALLELAQQDHGALDCCVVVILSHGCQASHLQFPGAVYGTDGCPVSVEKIVNIFNGTSCPSLGGKPKLFFIQAAGGEQKDHGFEVASTSPEDESPGSNPEPDATPFQEGLRTFDQLDAISSLPTPSDIFVSYSTFPGFVSWRDPKSGSWYVETLDDIFEQWAHSEDLQSLLLRVANAVSVKGIYKQMPGCFNFLRKKLFFKTS
Take B2: the inhibition of apoptosis entry is on record as “can also inhibit apoptosis” in test [3] (TRAIL, or overexpression of DR4 and DR5, FIG. 17); “as efficient as that observed with Bcl-xL or X-IAP” in test [3] (TRAIL, or overexpression of DR4 and DR5, FIG. 17, listed as dominant negative caspase-9 mutant). For the same molecule, the “attenuation of cytochrome c/dATP-induced activation of procaspase-9” value in test [4] is “able to attenuate”. Also, the “inhibition of apoptosis induced by the proapoptotic members of the Bcl-2 family” value in test [5] is reported as “can inhibit apoptosis”. The “attenuation of cytochrome c/dATP-induced activation of procaspase-3” value in test [6] was “able to attenuate”. For the same molecule, the “attenuation of Apaf-530-induced activation of procaspase-9” value in test [7] is “A similar result”.
